Experimental data published in PMC8565327, “A dominant-negative SOX18 mutant disrupts multiple regulatory layers essential to transcription factor activity” (Nucleic Acids Research, 2021).

T1: SOX7-eGFP, Q9BT81
T1 chain: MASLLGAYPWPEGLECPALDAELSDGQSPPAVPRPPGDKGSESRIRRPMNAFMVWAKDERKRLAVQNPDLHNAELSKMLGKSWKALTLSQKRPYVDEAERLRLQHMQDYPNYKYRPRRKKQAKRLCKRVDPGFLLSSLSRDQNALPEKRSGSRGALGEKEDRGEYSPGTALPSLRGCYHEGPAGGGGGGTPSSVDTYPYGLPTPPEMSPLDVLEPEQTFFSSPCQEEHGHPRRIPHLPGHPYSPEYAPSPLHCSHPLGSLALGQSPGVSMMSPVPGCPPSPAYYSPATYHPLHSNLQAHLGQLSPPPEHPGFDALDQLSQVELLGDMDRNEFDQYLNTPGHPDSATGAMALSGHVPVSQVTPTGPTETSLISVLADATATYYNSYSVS


Key:
SOX7-eGFP, Q9BT81 = molecular target: T1, SOX7-eGFP, Q9BT81; assay: cross-raster image correlation spectroscopy (cRICS); living HeLa cell nuclei, 37°C, transiently transfected; two colours (JF549 + JF646 on HaloTag, eGFP + JF646, or snap646 + JF549); fraction of molecules that move together; details: other: cross-raster image correlation spectroscopy (cRICS)
[1] = molecular target: the molecule itself; assay: number and brightness (N&B); living HeLa cell nuclei, 37°C; cells with low to medium expression, 1 μM JF549 Halo-tag dye; monomer brightness calibrated on HALO-SOX7

| Protein | percent heterodimer (SOX7-eGFP, Q9BT81) | stoichiometry N [1] |
| --- | --- | --- |
| HALO-SOX18 (protein) MQRSPPGYGAQDDPPSRRDCAWAPGIGAAAEARGLPVTNVSPTSPASPSSLPRSPPRSPESGRYGFGRGERQTADELRIRRPMNAFMVWAKDERKRLAQQNPDLHNAVLSKMLGKAWKELNTAEKRPFVEEAERLRVQHLRDHPNYKYRPRRKKQARKVRRLEPGLLLPGLVQPSAPPEAFAAASGSARSFRELPTLGAEFDGLGLPTPERSPLDGLEPGEASFFPPPLAPEDCALRAFRAPYAPELARDPSFCYGAPLAEALRTAPPAAPLAGLYYGTLGTPGPFPNPLSPPPESPSLEGTEQLEPTADLWADVDLTEFDQYLNCSRTRPDATTLPYHVALAKLGPRAMSCPEESSLISALSDASSAVYYSACISG | SOX7/SOX18 (18.5%) |  |
| HALO-SOX18 (natural protein, UniProt P43680 1-377, looked up, JF549 and/or JF646 Halo-tag dye on the HaloTag, SOX18 wild type from the plasmid pReceiver-M49(HaloTag-SOX18) of GeneCopoeia; In the functional row with MEF2C the protein was untagged-SOX18 from the same plasmid without the HaloTag; also called HaloTag-SOX18; pReceiver-M49(HaloTag-SOX18); source: HeLa, transiently transfected, in living cells) MQRSPPGYGAQDDPPSRRDCAWAPGIGAAAEARGLPVTNVSPTSPASPSSLPRSPPRSPESGRYGFGRGERQTADELRIRRPMNAFMVWAKDERKRLAQQNPDLHNAVLSKMLGKAWKELNTAEKRPFVEEAERLRVQHLRDHPNYKYRPRRKKQARKVRRLEPGLLLPGLVQPSAPPEAFAAASGSARSFRELPTLGAEFDGLGLPTPERSPLDGLEPGEASFFPPPLAPEDCALRAFRAPYAPELARDPSFCYGAPLAEALRTAPPAAPLAGLYYGTLGTPGPFPNPLSPPPESPSLEGTEQLEPTADLWADVDLTEFDQYLNCSRTRPDATTLPYHVALAKLGPRAMSCPEESSLISALSDASSAVYYSACISG |  | 2 |
